{"source": "patent US20150114310A1", "key": {"[1]": {"target": "Anti-roIFNT antibody", "experiment": "competitive RIA, unlabelled IFNT displacing 125I-roIFNT from the antibody; less dilute primary antibody"}, "[2]": {"target": "Anti-roIFNT antibody", "experiment": "competitive RIA, unlabelled IFNT displacing 125I-roIFNT from the antibody; primary antibody at 1:60,000"}}, "data": [{"substance": "recombinant ovine IFNT (roIFNT) (ligand)", "values": [{"measurement": "amount of ligand required to displace 50% binding", "setting": "[1]", "result": 1.5, "unit": "ng"}, {"measurement": "amount of ligand required to displace 50% binding", "setting": "[2]", "result": 0.4, "unit": "ng"}]}]}
